Results from patent publication CN106749644A.

Assays:
[1] = target: 不同的HCV包膜糖蛋白 (on HCV pseudovirus, HCVpp); test: cell-based or functional assay
[2] = target: HCV-E2蛋白 (Hepatitis C virus (HCV)); test: SPR, BiaCore X-100; antibody captured by goat anti-human IgG on CM5 chip, HCV-E2 as analyte

B1: 全人源抗HCV的单克隆中和抗体TRN1001 (antibody, V domains shown)
VH: QVQLVQSGAEVKKPGSSVKVSCKVSGDRINNYAINWVRQAPGQGLEWMGRIIGIVGLANYAQKFQGRVTMTADKSTSTGYMELSTLKSDDTAMYYCATDNRILAAAPSHYSYSMDLWGPGTTVTVSS
VL: QSALTQPASVSGSPGQSITISCTGTSSDVGGDNYVSWYQQYTGKAPKVMIYDVSKRPSGVSNRFSGSKSGNTASLTISGLQAEDEADYYCCSYTSDNSYVFGSGTKVIVL
With B1 the Luciferase活性 (荧光值), HCVpp infection of Huh7 cells [1] was 100%, the Kd [2] was 20.3 nM and the koff [2] was 0.00011 s⁻¹. It also gave a kon [2] of 5440 M⁻¹ s⁻¹.
